Values of other authors, collected in article PMC7192543.

Assays:
[1] = target: OmpR~P (Escherichia coli) (UniProt P0AA16)
OmpR (Escherichia coli) = OmpR (Escherichia coli) (UniProt P0AA16); test: fluorescence anisotropy

Substance	Kd [1] [nM]	Kd (OmpR (Escherichia coli)) [nM]
EnvZ (from UniProt P0AEJ4)	> 5000	–
EnvZ cytoplasmic domain (EnvZc) (from UniProt P0AEJ4)	–	425
